Legend:
Test in all cases: immunoprecipitation with anti-RARRES1 antibody from RARRES1-transfected HEK293 cells with or without nocodazole, immunoblot
[1] = molecular target: CDK2 (endogenous, HEK293 cells) (UniProt P24941 1-298)
Method: (§1) The cells were lysed in a lysis buffer (20 mM Tris, pH 7.4, 5 mM EDTA, 10 mM Na₄ P₂O₇, 100 mM NaF, 1% NP-40, 1 mM PMSF, 0.2% protease inhibitor cocktail and phosphatase inhibitor). The protein concentrations of the cell lysates were measured using a Pierce BCA Protein Assay kit (Pierce, Rockford, USA). Subsequently, protein lysates were resuspended in a loading buffer, boiled for 5 minutes, and then subjected to SDS-PAGE and immunoblotting with the indicated antibodies. For immunoprecipitation, a TAP buffer (25 mM Tris, pH 7.4, 140 mM NaCl, 0.5% NP-40, 10 mM NaF, 1 mM dithiothreitol (DTT), 1 mM phenylmethylsulphonyl fluoride, 1 mM EDTA, 1 mM Na₃VO₄, 1 mM β-glycerophosphate, 10% glycerol and 0.2% protease inhibitor cocktail and phosphatase inhibitor) was added to the cell lysates, and then the cell lysates were incubated along with a RARRES1 antibody (R & D System, MN, USA) or GST beads at 4° C. Protein expression was detected by chemiluminescence using the SuperSignal West Pico Chemiluminescent Substrate (Pierce).
(§2) In addition, it was examined whether RARRES1 interacted with other CDK-Cyclin complexes, including interphase CDKs (CDK2, CDK4, and CDK6) and their binding partner Cyclins, and immunoprecipitation according to Example 1-8 was performed on 293 cells under the same conditions as those in FIG. 7C.

[2] = molecular target: Cyclin A (endogenous, HEK293 cells) (UniProt P20248 1-432, limits assumed)
Chain of Cyclin A (endogenous, HEK293 cells) (P20248 whole entry): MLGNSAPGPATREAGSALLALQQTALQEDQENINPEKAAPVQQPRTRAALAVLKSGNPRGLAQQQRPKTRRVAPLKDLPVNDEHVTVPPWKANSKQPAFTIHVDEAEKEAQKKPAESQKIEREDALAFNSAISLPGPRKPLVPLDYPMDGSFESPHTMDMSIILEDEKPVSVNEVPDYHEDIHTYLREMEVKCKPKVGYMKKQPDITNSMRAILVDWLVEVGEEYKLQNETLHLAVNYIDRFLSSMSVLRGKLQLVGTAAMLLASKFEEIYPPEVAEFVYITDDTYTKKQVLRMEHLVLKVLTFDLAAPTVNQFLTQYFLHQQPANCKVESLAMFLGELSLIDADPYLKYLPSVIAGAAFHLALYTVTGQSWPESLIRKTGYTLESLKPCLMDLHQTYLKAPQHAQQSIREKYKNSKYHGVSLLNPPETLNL
Method: as §1, §2

[3] = molecular target: CDK4 (endogenous, HEK293 cells) (UniProt P11802 2-303)
Chain of CDK4 (endogenous, HEK293 cells) (P11802 2-303 limits assumed): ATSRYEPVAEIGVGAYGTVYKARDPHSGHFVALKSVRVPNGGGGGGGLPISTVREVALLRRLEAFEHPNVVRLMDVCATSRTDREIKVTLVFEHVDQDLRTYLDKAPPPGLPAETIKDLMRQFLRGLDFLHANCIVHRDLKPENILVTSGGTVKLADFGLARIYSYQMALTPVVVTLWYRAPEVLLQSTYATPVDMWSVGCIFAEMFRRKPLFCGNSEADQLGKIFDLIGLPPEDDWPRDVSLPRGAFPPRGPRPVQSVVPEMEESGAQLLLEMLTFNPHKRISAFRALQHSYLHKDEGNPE
Method: as §1, §2

[4] = molecular target: T1, Cyclin D (endogenous, HEK293 cells) (UniProt P24385 1-295, limits assumed)
T1 construct: Printed only as 'Cyclin D'; Cyclin D1 is inferred from the antibody list; also called Cyclin D1
T1 sequence (P24385 whole entry): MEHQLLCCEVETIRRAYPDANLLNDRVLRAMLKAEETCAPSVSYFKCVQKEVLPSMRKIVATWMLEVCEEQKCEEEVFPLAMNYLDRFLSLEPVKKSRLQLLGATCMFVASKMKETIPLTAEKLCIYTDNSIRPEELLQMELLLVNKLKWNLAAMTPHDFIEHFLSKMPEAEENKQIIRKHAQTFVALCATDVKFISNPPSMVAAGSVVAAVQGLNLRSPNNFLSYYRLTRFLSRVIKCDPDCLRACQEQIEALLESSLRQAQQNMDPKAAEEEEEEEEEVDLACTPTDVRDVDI
Method: as §1, §2

Measured: binding result

B1: retinoic acid receptor responder 1 (RARRES1), isoform 1, wild type, overexpressed in HEK293 cells (other)
chain: MQPRRQRLPAPWSGPRGPRPTAPLLALLLLLAPVAAPAGSGDPDDPGQPQDAGVPRRLLQQAARAALHFFNFRSGSPSALRVLAEVQEGRAWINPKEGCKVHVVFSTERYNPESLLQEGEGRLGKCSARVFFKNQKPRPTINVTCTRLIEKKKRQQEDYLLYKQMKQLKNPLEIVSIPDNHGHIDPSLRLIWDLAFLGSSYVMWEMTTQVSHYYLAQLTSVRQWKTNDDTIDFDYTVLLHELSTQEIIPCRIHLVWYPGKPLKVKYHCQELQTPEEASGTEEGSAVVPTELSNF
notes: also called RARRES1-1
no binding: all assays above

Reference: patent publication US20220026415A1 (NATIONAL CANCER CENTER, published 2022)
